Test results published in IntAct's records for PubMed 35512704.

B1: Mothers against decapentaplegic homolog 4 (Homo sapiens), Q13485 (parent)
chain: MDNMSITNTPTSNDACLSIVHSLMCHRQGGESETFAKRAIESLVKKLKEKKDELDSLITAITTNGAHPSKCVTIQRTLDGRLQVAGRKGFPHVIYARLWRWPDLHKNELKHVKYCQYAFDLKCDSVCVNPYHYERVVSPGIDLSGLTLQSNAPSSMMVKDEYVHDFEGQPSLSTEGHSIQTIQHPPSNRASTETYSTPALLAPSESNATSTANFPNIPVASTSQPASILGGSHSEGLLQIASGPQPGQQQNGFTGQPATYHHNSTTTWTGSRTAPYTPNLPHHQNGHLQHHPPMPPHPGHYWPVHNELAFQPPISNHPAPEYWCSIAYFEMDVQVGETFKVPSSCPIVTVDGYVDPSGGDRFCLGQLSNVHRTEAIERARLHIGKGVQLECKGEGDVWVRCLSDHAVFVQSYYLDREAGRAPGDAVHKIYPSAYIKVFDLRQCHRQMQQQAATAQAAAAAQAAAVAGNIPGPGSVGGIAPAISLSAAAGIGVDDLRRLCILRMSFVKGWGPDYPRQSIKETPCWIEIHLHRALQLLDEVLHTMPIADPQPLD

Variants of: B1
Conditions: with grm1_human GRM1, Q13255

Q: How did the “effect of a mutation on the interaction” value turn out when R361C was run?
A: Its value is “with no effect”.

Variants of: B1
Conditions: with grm3_human GRM3, Q14832

Q: Which “effect of a mutation on the interaction” value does the source give for R361C here?
A: The value was “with no effect”.

Variants of: B1
Conditions: with gsk3a_human GSK3A

Q: Which “effect of a mutation on the interaction” value does the source give for R361C here?
A: The value was “with no effect”.

Variants of: B1
Conditions: with hdac1_human HDAC1, Q13547

Q: For R361C, which “effect of a mutation on the interaction” value is on record?
A: The value was “with no effect”.

Variants of: B1
Conditions: with hdac3_human HDAC3, O15379

Q: With R361C as the variant, how does the “effect of a mutation on the interaction” value read?
A: Its value is “with no effect”.

Variants of: B1
Conditions: with hgf_human HGF

Q: Which “effect of a mutation on the interaction” value does the source give for R361C here?
A: The value was “with no effect”.

Variants of: B1
Conditions: with h31_human H3C1, P68431

Q: With R361C as the variant, how does the “effect of a mutation on the interaction” value read?
A: The value was “with no effect”.

Variants of: B1
Conditions: with hlab_human HLA-B

Q: Which “effect of a mutation on the interaction” value does the source give for R361C here?
A: The value was “with no effect”.

Variants of: B1
Conditions: with hnf1a_human HNF1A

Q: R361C was tested. Which “effect of a mutation on the interaction” value did it give?
A: Its value is “with no effect”.

Variants of: B1
Conditions: with rash_human HRAS

Q: Which “effect of a mutation on the interaction” value does the source give for R361C here?
A: The value was “with no effect”.

Variants of: B1
Conditions: with hs90a_human HSP90AA1, P07900

Q: How did the “effect of a mutation on the interaction” value turn out when R361C was run?
A: Its value is “with no effect”.

Variants of: B1
Conditions: with il7ra_human IL7R

Q: R361C was tested. Which “effect of a mutation on the interaction” value did it give?
A: Its value is “with no effect”.

Variants of: B1
Conditions: with irf6_human IRF6, O14896

Q: R361C was tested. Which “effect of a mutation on the interaction” value did it give?
A: The value was “with no effect”.

Variants of: B1
Conditions: with irs1_human IRS1, P35568

Q: R361C was tested. Which “effect of a mutation on the interaction” value did it give?
A: The value was “with no effect”.

Variants of: B1
Conditions: with jak1_human JAK1, P23458

Q: Which “effect of a mutation on the interaction” value does the source give for R361C here?
A: Its value is “with no effect”.

Variants of: B1
Conditions: with jak3_human JAK3, P52333

Q: With R361C as the variant, how does the “effect of a mutation on the interaction” value read?
A: The value was “with no effect”.

Variants of: B1
Conditions: with kdm5c_human KDM5C

Q: For R361C, which “effect of a mutation on the interaction” value is on record?
A: Its value is “with no effect”.

Variants of: B1
Conditions: with vgfr2_human KDR

Q: For R361C, which “effect of a mutation on the interaction” value is on record?
A: The value was “with no effect”.

Variants of: B1
Conditions: with keap1_human KEAP1, Q14145

Q: For R361C, which “effect of a mutation on the interaction” value is on record?
A: The value was “with no effect”.

Variants of: B1
Conditions: with klf4_human KLF4, O43474

Q: For R361C, which “effect of a mutation on the interaction” value is on record?
A: The value was “with no effect”.

Variants of: B1
Conditions: with maga6_human MAGEA6, P43360

Q: For R361C, which “effect of a mutation on the interaction” value is on record?
A: Its value is “with no effect”.

Variants of: B1
Conditions: with mp2k7_human MAP2K7, O14733

Q: For R361C, which “effect of a mutation on the interaction” value is on record?
A: Its value is “with no effect”.

Variants of: B1
Conditions: with m3k1_human MAP3K1, Q13233

Q: How did the “effect of a mutation on the interaction” value turn out when R361C was run?
A: The value was “with no effect”.

Variants of: B1
Conditions: with mk10_human MAPK10, P53779
Chain of mk10_human MAPK10, P53779 (P53779 whole entry): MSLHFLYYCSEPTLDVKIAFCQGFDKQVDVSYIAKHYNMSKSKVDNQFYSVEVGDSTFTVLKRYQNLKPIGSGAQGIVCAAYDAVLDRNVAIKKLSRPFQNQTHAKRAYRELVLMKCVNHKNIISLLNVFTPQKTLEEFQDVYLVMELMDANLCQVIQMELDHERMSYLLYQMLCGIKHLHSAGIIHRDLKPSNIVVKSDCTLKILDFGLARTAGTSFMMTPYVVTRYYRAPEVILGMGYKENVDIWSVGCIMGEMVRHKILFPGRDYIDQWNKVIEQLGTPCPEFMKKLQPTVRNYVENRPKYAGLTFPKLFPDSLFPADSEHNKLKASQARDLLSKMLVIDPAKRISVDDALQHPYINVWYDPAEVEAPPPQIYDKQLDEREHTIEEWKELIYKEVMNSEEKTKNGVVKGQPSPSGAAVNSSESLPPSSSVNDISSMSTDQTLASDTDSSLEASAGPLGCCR

Q: How did the “effect of a mutation on the interaction” value turn out when R361C was run?
A: The value was “with no effect”.

Variants of: B1
Conditions: with mk14_human MAPK14, Q16539

Q: R361C was tested. Which “effect of a mutation on the interaction” value did it give?
A: Its value is “with no effect”.

Variants of: B1
Conditions: with mk03_human MAPK3, P27361

Q: With R361C as the variant, how does the “effect of a mutation on the interaction” value read?
A: The value was “with no effect”.

Variants of: B1
Conditions: with mk04_human MAPK4, P31152
Chain of mk04_human MAPK4, P31152 (P31152 whole entry): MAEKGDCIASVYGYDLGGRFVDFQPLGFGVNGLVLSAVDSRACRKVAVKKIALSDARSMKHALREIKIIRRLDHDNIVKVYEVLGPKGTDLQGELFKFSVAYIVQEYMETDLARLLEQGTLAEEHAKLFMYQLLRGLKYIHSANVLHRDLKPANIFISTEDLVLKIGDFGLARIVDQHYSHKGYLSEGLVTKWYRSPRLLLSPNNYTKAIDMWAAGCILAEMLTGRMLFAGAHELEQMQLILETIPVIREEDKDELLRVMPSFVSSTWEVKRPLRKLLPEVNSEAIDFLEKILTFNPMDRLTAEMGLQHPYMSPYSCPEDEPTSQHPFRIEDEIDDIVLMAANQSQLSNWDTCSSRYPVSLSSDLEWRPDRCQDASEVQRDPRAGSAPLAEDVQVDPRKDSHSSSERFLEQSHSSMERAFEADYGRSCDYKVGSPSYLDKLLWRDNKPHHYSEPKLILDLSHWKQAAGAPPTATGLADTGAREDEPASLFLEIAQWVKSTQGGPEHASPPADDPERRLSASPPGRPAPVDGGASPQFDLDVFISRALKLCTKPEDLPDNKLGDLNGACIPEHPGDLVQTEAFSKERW

Q: With R361C as the variant, how does the “effect of a mutation on the interaction” value read?
A: The value was “with no effect”.

Variants of: B1
Conditions: with mk06_human MAPK6, Q16659

Q: How did the “effect of a mutation on the interaction” value turn out when R361C was run?
A: The value was “with no effect”.

Variants of: B1
Conditions: with mcl1_human MCL1, Q07820

Q: With R361C as the variant, how does the “effect of a mutation on the interaction” value read?
A: Its value is “with no effect”.

Variants of: B1
Conditions: with mitf_human MITF

Q: For R361C, which “effect of a mutation on the interaction” value is on record?
A: Its value is “with no effect”.

Variants of: B1
Conditions: with myc_human MYC

Q: R361C was tested. Which “effect of a mutation on the interaction” value did it give?
A: Its value is “with no effect”.

Variants of: B1
Conditions: with nf1_human NF1, P21359

Q: How did the “effect of a mutation on the interaction” value turn out when R361C was run?
A: The value was “with no effect”.

Variants of: B1
Conditions: with merl_human NF2, P35240

Q: Which “effect of a mutation on the interaction” value does the source give for R361C here?
A: Its value is “with no effect”.

Variants of: B1
Conditions: with nfic_human NFIC

Q: Which “effect of a mutation on the interaction” value does the source give for R361C here?
A: Its value is “with no effect”.

Variants of: B1
Conditions: with notc2_human NOTCH2, Q04721

Q: How did the “effect of a mutation on the interaction” value turn out when R361C was run?
A: The value was “with no effect”.

Variants of: B1
Conditions: with pak3_human PAK3, O75914

Q: R361C was tested. Which “effect of a mutation on the interaction” value did it give?
A: Its value is “with no effect”.

Variants of: B1
Conditions: with pax5_human PAX5, Q02548
Chain of pax5_human PAX5, Q02548 (Q02548 whole entry): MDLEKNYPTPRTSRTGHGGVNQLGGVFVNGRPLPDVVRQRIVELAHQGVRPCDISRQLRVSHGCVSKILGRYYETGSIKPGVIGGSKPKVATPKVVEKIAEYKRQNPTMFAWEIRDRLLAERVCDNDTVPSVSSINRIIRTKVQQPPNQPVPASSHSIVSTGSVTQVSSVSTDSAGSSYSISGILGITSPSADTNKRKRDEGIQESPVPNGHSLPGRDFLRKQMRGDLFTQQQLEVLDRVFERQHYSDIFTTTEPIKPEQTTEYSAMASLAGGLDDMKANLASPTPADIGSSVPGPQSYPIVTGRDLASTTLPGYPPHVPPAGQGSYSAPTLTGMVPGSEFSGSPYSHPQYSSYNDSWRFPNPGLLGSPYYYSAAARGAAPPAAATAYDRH

Q: R361C was tested. Which “effect of a mutation on the interaction” value did it give?
A: Its value is “with no effect”.

Variants of: B1
Conditions: with pax9_human PAX9, P55771
Chain of pax9_human PAX9, P55771 (P55771 whole entry): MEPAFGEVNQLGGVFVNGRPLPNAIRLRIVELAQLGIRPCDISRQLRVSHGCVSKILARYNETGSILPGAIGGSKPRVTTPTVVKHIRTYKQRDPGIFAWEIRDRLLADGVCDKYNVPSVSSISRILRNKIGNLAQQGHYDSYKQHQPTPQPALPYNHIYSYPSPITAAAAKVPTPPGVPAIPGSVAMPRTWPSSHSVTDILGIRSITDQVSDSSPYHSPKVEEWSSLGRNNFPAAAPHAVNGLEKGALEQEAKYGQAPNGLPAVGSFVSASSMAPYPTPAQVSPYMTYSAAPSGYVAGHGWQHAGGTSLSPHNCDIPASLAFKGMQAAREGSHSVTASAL

Q: For R361C, which “effect of a mutation on the interaction” value is on record?
A: Its value is “with no effect”.

Variants of: B1
Conditions: with pb1_human PBRM1, Q86U86

Q: With R361C as the variant, how does the “effect of a mutation on the interaction” value read?
A: Its value is “with no effect”.

Variants of: B1
Conditions: with pcbp1_human PCBP1, Q15365
Chain of pcbp1_human PCBP1, Q15365 (Q15365 whole entry): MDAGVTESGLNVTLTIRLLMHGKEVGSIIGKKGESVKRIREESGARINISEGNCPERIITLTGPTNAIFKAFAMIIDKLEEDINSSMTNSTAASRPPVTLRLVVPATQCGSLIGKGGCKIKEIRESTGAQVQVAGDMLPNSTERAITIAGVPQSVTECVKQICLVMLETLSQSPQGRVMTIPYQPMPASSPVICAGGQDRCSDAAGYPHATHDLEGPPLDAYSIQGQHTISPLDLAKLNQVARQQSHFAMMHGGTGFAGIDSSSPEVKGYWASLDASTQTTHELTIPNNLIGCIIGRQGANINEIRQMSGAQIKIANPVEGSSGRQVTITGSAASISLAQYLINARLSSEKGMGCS

Q: R361C was tested. Which “effect of a mutation on the interaction” value did it give?
A: Its value is “with no effect”.

Variants of: B1
Conditions: with pgfra_human PDGFRA

Q: For R361C, which “effect of a mutation on the interaction” value is on record?
A: The value was “with no effect”.

Variants of: B1
Conditions: with pgfrb_human PDGFRB

Q: Which “effect of a mutation on the interaction” value does the source give for R361C here?
A: Its value is “with no effect”.

Variants of: B1
Conditions: with pdk1_human PDK1, Q15118

Q: With R361C as the variant, how does the “effect of a mutation on the interaction” value read?
A: Its value is “with no effect”.

Variants of: B1
Conditions: with PIK3C2B

Q: How did the “effect of a mutation on the interaction” value turn out when R361C was run?
A: Its value is “with no effect”.

Variants of: B1
Conditions: with pk3c3_human PIK3C3, Q8NEB9

Q: R361C was tested. Which “effect of a mutation on the interaction” value did it give?
A: Its value is “with no effect”.

Variants of: B1
Conditions: with pk3ca_human PIK3CA

Q: With R361C as the variant, how does the “effect of a mutation on the interaction” value read?
A: Its value is “with no effect”.

Variants of: B1
Conditions: with pk3cg_human PIK3CG

Q: Which “effect of a mutation on the interaction” value does the source give for R361C here?
A: The value was “with no effect”.

Variants of: B1
Conditions: with p85a_human PIK3R1, P27986
Chain of p85a_human PIK3R1, P27986 (P27986 whole entry): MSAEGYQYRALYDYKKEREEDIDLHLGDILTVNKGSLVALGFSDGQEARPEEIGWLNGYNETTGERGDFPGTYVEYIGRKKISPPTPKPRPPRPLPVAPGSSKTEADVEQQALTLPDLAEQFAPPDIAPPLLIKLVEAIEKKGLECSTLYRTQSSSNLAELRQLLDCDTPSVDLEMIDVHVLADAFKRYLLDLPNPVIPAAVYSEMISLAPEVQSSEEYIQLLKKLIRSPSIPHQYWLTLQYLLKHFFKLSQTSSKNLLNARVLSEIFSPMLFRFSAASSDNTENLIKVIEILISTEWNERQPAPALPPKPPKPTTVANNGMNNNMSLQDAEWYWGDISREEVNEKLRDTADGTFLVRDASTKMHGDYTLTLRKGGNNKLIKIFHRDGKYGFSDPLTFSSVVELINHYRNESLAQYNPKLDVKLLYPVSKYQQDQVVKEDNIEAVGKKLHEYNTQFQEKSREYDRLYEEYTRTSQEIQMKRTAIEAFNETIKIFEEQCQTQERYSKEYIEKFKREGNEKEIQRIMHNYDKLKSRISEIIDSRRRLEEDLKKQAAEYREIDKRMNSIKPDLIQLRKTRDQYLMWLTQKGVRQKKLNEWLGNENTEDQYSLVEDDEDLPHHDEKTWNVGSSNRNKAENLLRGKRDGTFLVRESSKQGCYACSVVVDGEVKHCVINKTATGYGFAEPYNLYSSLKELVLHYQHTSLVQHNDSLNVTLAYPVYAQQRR

Q: Which “effect of a mutation on the interaction” value does the source give for R361C here?
A: Its value is “with no effect”.

Variants of: B1
Conditions: with p85b_human PIK3R2, O00459

Q: For R361C, which “effect of a mutation on the interaction” value is on record?
A: Its value is “with no effect”.

Variants of: B1
Conditions: with dpod1_human POLD1, P28340
Chain of dpod1_human POLD1, P28340 (P28340 whole entry): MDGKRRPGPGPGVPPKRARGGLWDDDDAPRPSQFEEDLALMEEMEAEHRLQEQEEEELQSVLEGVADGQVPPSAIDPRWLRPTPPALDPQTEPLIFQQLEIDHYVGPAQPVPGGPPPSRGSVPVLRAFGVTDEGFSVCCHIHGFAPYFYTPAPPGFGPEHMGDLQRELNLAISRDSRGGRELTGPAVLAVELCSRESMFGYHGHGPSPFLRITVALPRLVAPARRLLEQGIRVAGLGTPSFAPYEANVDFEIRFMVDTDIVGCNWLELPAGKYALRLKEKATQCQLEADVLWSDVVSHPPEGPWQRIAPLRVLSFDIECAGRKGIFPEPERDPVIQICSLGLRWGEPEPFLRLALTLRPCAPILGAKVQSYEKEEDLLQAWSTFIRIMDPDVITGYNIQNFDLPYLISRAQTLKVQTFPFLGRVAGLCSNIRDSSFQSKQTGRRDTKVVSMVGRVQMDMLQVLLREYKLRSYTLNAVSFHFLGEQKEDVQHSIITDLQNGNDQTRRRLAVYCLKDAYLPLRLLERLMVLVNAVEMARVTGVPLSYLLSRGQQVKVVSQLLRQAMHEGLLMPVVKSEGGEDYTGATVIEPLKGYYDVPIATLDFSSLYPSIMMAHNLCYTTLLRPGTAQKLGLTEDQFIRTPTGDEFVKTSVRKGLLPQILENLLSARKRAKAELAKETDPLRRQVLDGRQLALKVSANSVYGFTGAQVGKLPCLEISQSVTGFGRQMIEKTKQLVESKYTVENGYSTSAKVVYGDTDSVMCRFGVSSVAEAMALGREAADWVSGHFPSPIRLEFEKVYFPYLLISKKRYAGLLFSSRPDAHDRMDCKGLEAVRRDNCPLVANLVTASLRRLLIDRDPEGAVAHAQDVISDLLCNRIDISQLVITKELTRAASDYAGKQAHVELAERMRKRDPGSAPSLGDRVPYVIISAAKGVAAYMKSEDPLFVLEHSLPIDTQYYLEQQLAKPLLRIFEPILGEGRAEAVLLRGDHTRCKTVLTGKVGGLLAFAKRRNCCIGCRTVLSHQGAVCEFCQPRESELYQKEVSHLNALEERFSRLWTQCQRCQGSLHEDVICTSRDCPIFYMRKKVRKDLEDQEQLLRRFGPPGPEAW

Q: R361C was tested. Which “effect of a mutation on the interaction” value did it give?
A: The value was “with no effect”.

Variants of: B1
Conditions: with dpoe1_human POLE

Q: For R361C, which “effect of a mutation on the interaction” value is on record?
A: The value was “with no effect”.

Variants of: B1
Conditions: with lipa1_human PPFIA1, Q13136

Q: How did the “effect of a mutation on the interaction” value turn out when R361C was run?
A: The value was “with no effect”.

Variants of: B1
Conditions: with 2aaa_human PPP2R1A

Q: Which “effect of a mutation on the interaction” value does the source give for R361C here?
A: Its value is “with no effect”.

Variants of: B1
Conditions: with prdm1_human PRDM1, O75626

Q: Which “effect of a mutation on the interaction” value does the source give for R361C here?
A: Its value is “with no effect”.

Variants of: B1
Conditions: with aapk2_human PRKAA2, P54646

Q: With R361C as the variant, how does the “effect of a mutation on the interaction” value read?
A: The value was “with no effect”.

Variants of: B1
Conditions: with aakb2_human PRKAB2, O43741
Chain of aakb2_human PRKAB2, O43741 (O43741 whole entry): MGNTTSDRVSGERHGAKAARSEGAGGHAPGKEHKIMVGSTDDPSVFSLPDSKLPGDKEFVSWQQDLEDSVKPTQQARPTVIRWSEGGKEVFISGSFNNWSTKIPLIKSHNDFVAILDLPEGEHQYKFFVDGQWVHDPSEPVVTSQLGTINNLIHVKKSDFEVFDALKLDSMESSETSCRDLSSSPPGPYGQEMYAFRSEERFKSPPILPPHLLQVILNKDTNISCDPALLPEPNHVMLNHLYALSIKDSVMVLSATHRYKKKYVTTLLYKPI

Q: For R361C, which “effect of a mutation on the interaction” value is on record?
A: The value was “with no effect”.

Variants of: B1
Conditions: with prss8_human PRSS8, Q16651

Q: How did the “effect of a mutation on the interaction” value turn out when R361C was run?
A: The value was “with no effect”.

Variants of: B1
Conditions: with ptk6_human PTK6, Q13882

Q: R361C was tested. Which “effect of a mutation on the interaction” value did it give?
A: Its value is “with no effect”.

Variants of: B1
Conditions: with tf65_human RELA

Q: Which “effect of a mutation on the interaction” value does the source give for R361C here?
A: Its value is “with no effect”.

Variants of: B1
Conditions: with rnf43_human RNF43, Q68DV7
Chain of rnf43_human RNF43, Q68DV7 (Q68DV7 whole entry): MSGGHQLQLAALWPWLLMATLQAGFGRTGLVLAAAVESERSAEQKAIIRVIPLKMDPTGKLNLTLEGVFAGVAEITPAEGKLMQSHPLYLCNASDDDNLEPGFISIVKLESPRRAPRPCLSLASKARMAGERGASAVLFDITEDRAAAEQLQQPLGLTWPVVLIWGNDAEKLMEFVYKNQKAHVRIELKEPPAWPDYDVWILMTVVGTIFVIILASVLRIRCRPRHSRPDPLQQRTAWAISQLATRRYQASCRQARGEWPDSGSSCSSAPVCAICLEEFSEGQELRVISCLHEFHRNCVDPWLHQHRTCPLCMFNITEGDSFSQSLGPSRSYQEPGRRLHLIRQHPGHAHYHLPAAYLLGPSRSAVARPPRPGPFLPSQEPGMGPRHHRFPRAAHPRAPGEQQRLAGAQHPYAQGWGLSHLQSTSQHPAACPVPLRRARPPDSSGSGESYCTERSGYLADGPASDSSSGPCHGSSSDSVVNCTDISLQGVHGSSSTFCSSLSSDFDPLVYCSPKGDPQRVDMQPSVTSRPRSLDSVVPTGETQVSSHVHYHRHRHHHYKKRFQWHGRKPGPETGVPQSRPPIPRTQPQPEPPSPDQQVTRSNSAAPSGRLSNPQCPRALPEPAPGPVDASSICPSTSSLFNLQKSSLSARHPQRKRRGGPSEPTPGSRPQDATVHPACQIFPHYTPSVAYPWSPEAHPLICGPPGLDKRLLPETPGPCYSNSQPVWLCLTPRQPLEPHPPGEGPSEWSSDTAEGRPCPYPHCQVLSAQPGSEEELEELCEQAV

Q: For R361C, which “effect of a mutation on the interaction” value is on record?
A: The value was “with no effect”.
